From patent publication US20230365675A1 (published 2023)

B1: sdCD33_3 (VHH)
VHH: DVQLVESGGGLVQPGGSLRLSCSVSGNIDRFYAMGWYRQAPGKQRELVAQLTNNEITTYGDSVEGQFSISGDFDANTVYLQMDSLKPEDTAVYYCHAHVTTTRWSQDYYWGQGTRVTVSS
B2: sdCD33_4 (VHH)
VHH: QVKLEESGGGSVQAGESLRLSCTASGITFRDYDIDWYRQAPGKEREWLATITPSGTTHYPDSVKGRATISRDSAKNTVYLQMNSLKPEDTARYECNTLAYWGSGTQVTVSS
B3: sdCD33_10 (VHH)
VHH: QVQLVETGGGLVRAGGSLRLSCAASGRTADIYNIGWFRQAPGKEREFVAAITWIGRTPYYADAVKGRFAFSTDSAKNTVSLQMDNLKPEDTGVYYCNAAHYLEGNTDYYWGQGTQVTVSS

What was measured:
[1] = biological target: CD33-GFP fusion protein, wild type (WT), on 293FT cells (UniProt P20138); test: FACS, WT CD33-GFP on 293FT cells
[2] = biological target: Biotinylated CD33 protein (UniProt P20138); test: Octet competition on biotinylated CD33; competitor 429
[3] = biological target: T1, Mutant CD33-GFP M2 (H45E) on 293FT cells (UniProt P20138 18-364); test: FACS, mutant CD33-GFP on 293FT cells
T1 construct: whole, on cells; not shown: GFP fused to CD33

[4] = biological target: T2, Mutant CD33-GFP M1 (W22A) on 293FT cells (UniProt P20138 18-364); test: FACS, mutant CD33-GFP on 293FT cells
T2 construct: whole, on cells; not shown: GFP fused to CD33

[5] = biological target: T3, Mutant CD33-GFP M3 (N99A) on 293FT cells (UniProt P20138 18-364); test: FACS, mutant CD33-GFP on 293FT cells
T3 construct: whole, on cells; not shown: GFP fused to CD33

[6] = biological target: T4, Mutant CD33-GFP M6 (F43N) on 293FT cells (UniProt P20138 18-364); test: FACS, mutant CD33-GFP on 293FT cells
T4 construct: whole, on cells; not shown: GFP fused to CD33

[7] = biological target: T5, Mutant CD33-GFP M8 (K52A) on 293FT cells (UniProt P20138 18-364); test: FACS, mutant CD33-GFP on 293FT cells
T5 construct: whole, on cells; not shown: GFP fused to CD33

[8] = biological target: T6, Mutant CD33-GFP M7 (R98D) on 293FT cells (UniProt P20138 18-364); test: FACS, mutant CD33-GFP on 293FT cells
T6 construct: whole, on cells; not shown: GFP fused to CD33

[9] = biological target: Biotinylated CD33 protein (UniProt P20138); test: Octet competition on biotinylated CD33; competitor 348
[10] = biological target: Biotinylated CD33 protein (UniProt P20138); test: Octet competition on biotinylated CD33; competitor 424
[11] = biological target: Biotinylated CD33 protein (UniProt P20138); test: Octet competition on biotinylated CD33; competitor h195
[12] = biological target: Biotinylated CD33 protein (UniProt P20138); test: Octet competition on biotinylated CD33; competitor 420
[13] = biological target: Biotinylated CD33 protein (UniProt P20138); test: Octet competition on biotinylated CD33; competitor 416
[14] = biological target: Biotinylated CD33 protein (UniProt P20138); test: Octet competition on biotinylated CD33; competitor 389
[15] = biological target: Biotinylated CD33 protein (UniProt P20138); test: Octet competition on biotinylated CD33; competitor 413
[16] = biological target: Mutant CD33-GFP M11 (L78T) on 293FT cells (UniProt P20138); test: FACS, mutant CD33-GFP on 293FT cells
[17] = biological target: Mutant CD33-GFP JS24 (Q24E) on 293FT cells (UniProt P20138); test: FACS, mutant CD33-GFP on 293FT cells
[18] = biological target: Mutant CD33-GFP M16 (4889AII) on 293FT cells (UniProt P20138); test: FACS, mutant CD33-GFP on 293FT cells
[19] = biological target: Mutant CD33-GFP M14 (E170R) on 293FT cells (UniProt P20138); test: FACS, mutant CD33-GFP on 293FT cells
[20] = biological target: Mutant CD33-GFP M13 (R91E) on 293FT cells (UniProt P20138); test: FACS, mutant CD33-GFP on 293FT cells
[21] = biological target: Mutant CD33-GFP JS25 (V25M) on 293FT cells (UniProt P20138); test: FACS, mutant CD33-GFP on 293FT cells
[22] = biological target: Mutant CD33-GFP M18 (353AAL) on 293FT cells (UniProt P20138); test: FACS, mutant CD33-GFP on 293FT cells
[23] = biological target: Mutant CD33-GFP M17 (F21Y) on 293FT cells (UniProt P20138); test: FACS, mutant CD33-GFP on 293FT cells
[24] = biological target: Mutant CD33-GFP N20D on 293FT cells (UniProt P20138); test: FACS, mutant CD33-GFP on 293FT cells
[25] = biological target: Mutant CD33-GFP M15 (Q171A) on 293FT cells (UniProt P20138); test: FACS, mutant CD33-GFP on 293FT cells
[26] = biological target: Mutant CD33-GFP M12 (G88S) on 293FT cells (UniProt P20138); test: FACS, mutant CD33-GFP on 293FT cells
[27] = biological target: Mutant CD33-GFP M19 (348ATAI) on 293FT cells (UniProt P20138); test: FACS, mutant CD33-GFP on 293FT cells
[28] = biological target: Mutant CD33-GFP JS23 (L23N) on 293FT cells (UniProt P20138); test: FACS, mutant CD33-GFP on 293FT cells
[29] = biological target: Mutant CD33-GFP M10 (Y127A) on 293FT cells (UniProt P20138); test: FACS, mutant CD33-GFP on 293FT cells
[30] = biological target: Mutant CD33-GFP M9 (Y49, 50A) on 293FT cells (UniProt P20138); test: FACS, mutant CD33-GFP on 293FT cells
[31] = biological target: Mutant CD33-GFP M4 (R122D) on 293FT cells (UniProt P20138); test: FACS, mutant CD33-GFP on 293FT cells
[32] = biological target: Mutant CD33-GFP M5 (AEAD), quadruple mutant, on 293FT cells (UniProt P20138); test: FACS, mutant CD33-GFP on 293FT cells
[33] = biological target: Mutant CD33-GFP JS28 (S28L) on 293FT cells (UniProt P20138); test: FACS, mutant CD33-GFP on 293FT cells
[34] = biological target: Biotinylated CD33 protein (UniProt P20138); test: Octet competition on biotinylated CD33; competitor 430
[35] = biological target: Biotinylated CD33 protein (UniProt P20138); test: Octet competition on biotinylated CD33; competitor 426
[36] = biological target: Biotinylated CD33 protein (UniProt P20138); test: Octet competition on biotinylated CD33; competitor 353

Mutant CD33-GFP M9 (Y49, 50A) on 293FT cells, sequence (P20138 other isoform, or with tags, fused parts or gaps mutant): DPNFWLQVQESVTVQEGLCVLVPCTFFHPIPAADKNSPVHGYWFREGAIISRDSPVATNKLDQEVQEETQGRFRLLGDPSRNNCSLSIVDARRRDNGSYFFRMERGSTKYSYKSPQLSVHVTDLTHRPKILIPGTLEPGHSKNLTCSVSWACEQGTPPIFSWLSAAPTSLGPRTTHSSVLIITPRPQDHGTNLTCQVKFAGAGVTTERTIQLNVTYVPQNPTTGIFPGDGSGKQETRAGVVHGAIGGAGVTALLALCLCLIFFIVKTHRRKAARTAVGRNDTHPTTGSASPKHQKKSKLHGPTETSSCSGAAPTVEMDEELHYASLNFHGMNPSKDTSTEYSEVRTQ
Mutant CD33-GFP JS28 (S28L) on 293FT cells, sequence (P20138 18-364 S28L): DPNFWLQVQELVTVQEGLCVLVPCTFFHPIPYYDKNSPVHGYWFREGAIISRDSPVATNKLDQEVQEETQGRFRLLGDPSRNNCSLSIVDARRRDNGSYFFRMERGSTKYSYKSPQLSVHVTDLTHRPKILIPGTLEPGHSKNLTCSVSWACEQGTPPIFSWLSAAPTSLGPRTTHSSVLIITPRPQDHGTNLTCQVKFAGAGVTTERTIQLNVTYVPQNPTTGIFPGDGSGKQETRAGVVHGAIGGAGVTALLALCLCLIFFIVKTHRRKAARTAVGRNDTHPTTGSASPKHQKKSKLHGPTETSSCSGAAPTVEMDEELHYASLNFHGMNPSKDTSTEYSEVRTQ
Mutant CD33-GFP M5 (AEAD), quadruple mutant, on 293FT cells, sequence (P20138 other isoform, or with tags, fused parts or gaps mutant): as the sequence (P20138 18-364 S28L) above, with W5A, L11S, H28E, N82A, R105D counted along it
T6 sequence (P20138 18-364 R98D): as the sequence (P20138 18-364 S28L) above, with L11S, R81D counted along it
Mutant CD33-GFP M12 (G88S) on 293FT cells, sequence (P20138 18-364 G88S): as the sequence (P20138 18-364 S28L) above, with L11S, G71S counted along it
Mutant CD33-GFP M11 (L78T) on 293FT cells, sequence (P20138 18-364 L78T): as the sequence (P20138 18-364 S28L) above, with L11S, L61T counted along it
T3 sequence (P20138 18-364 N99A): as the sequence (P20138 18-364 S28L) above, with L11S, N82A counted along it
Mutant CD33-GFP M10 (Y127A) on 293FT cells, sequence (P20138 18-364 Y127A): as the sequence (P20138 18-364 S28L) above, with L11S, Y110A counted along it
T2 sequence (P20138 18-364 W22A): as the sequence (P20138 18-364 S28L) above, with W5A, L11S counted along it
Mutant CD33-GFP JS24 (Q24E) on 293FT cells, sequence (P20138 18-364 Q24E): as the sequence (P20138 18-364 S28L) above, with Q7E, L11S counted along it
T5 sequence (P20138 18-364 K52A): as the sequence (P20138 18-364 S28L) above, with L11S, K35A counted along it
CD33-GFP fusion protein, wild type (WT), on 293FT cells, sequence (P20138 18-364): as the sequence (P20138 18-364 S28L) above, with L11S counted along it
T4 sequence (P20138 18-364 F43N): as the sequence (P20138 18-364 S28L) above, with L11S, F26N counted along it
Mutant CD33-GFP N20D on 293FT cells, sequence (P20138 18-364 N20D): as the sequence (P20138 18-364 S28L) above, with N3D, L11S counted along it
Mutant CD33-GFP M15 (Q171A) on 293FT cells, sequence (P20138 18-364 Q171A): as the sequence (P20138 18-364 S28L) above, with L11S, Q154A counted along it
Mutant CD33-GFP M4 (R122D) on 293FT cells, sequence (P20138 18-364 R122D): as the sequence (P20138 18-364 S28L) above, with L11S, R105D counted along it
Mutant CD33-GFP JS23 (L23N) on 293FT cells, sequence (P20138 18-364 L23N): as the sequence (P20138 18-364 S28L) above, with L6N, L11S counted along it
Biotinylated CD33 protein, sequence (P20138 18-259 limits assumed): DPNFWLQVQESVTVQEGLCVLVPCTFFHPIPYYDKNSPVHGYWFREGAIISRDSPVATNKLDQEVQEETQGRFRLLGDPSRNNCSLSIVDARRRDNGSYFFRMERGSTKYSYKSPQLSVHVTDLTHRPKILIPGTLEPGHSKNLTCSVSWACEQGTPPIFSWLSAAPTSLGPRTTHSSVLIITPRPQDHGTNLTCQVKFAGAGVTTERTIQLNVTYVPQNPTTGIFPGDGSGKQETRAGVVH
Mutant CD33-GFP M13 (R91E) on 293FT cells, sequence (P20138 18-364 R91E): as the sequence (P20138 18-364 S28L) above, with L11S, R74E counted along it
Mutant CD33-GFP JS25 (V25M) on 293FT cells, sequence (P20138 18-364 V25M): as the sequence (P20138 18-364 S28L) above, with V8M, L11S counted along it
Mutant CD33-GFP M17 (F21Y) on 293FT cells, sequence (P20138 18-364 F21Y): as the sequence (P20138 18-364 S28L) above, with F4Y, L11S counted along it
T1 sequence (P20138 18-364 H45E): as the sequence (P20138 18-364 S28L) above, with L11S, H28E counted along it
Mutant CD33-GFP M14 (E170R) on 293FT cells, sequence (P20138 18-364 E170R): as the sequence (P20138 18-364 S28L) above, with L11S, E153R counted along it

Molecule	FACS binding data [1]	FACS binding data [3]	FACS binding data [4]	FACS binding data [5]	FACS binding data [6]	FACS binding data [7]	FACS binding data [8]	Octet signal [9]	Octet signal [10]	Octet signal [11]	Octet signal [12]	Octet signal [13]	Octet signal [15]	FACS binding data [16]	FACS binding data [17]	FACS binding data [18]	FACS binding data [19]	FACS binding data [20]	FACS binding data [21]	FACS binding data [22]	also measured
hu195 (antibody)	97.8																				
B1	98.3	98.8	99.4	99.4	99	97.3	98.8	0.0077	-0.108	0.295	-0.0387	-0.0696	0.0204	78	99.4	98.4	98.7	98.7	99.7	99	Octet signal [2]: -0.13; Octet signal [14]: 0.152; FACS binding data [23]: 98.2; FACS binding data [24]: 98.7; FACS binding data [25]: 98.2; FACS binding data [26]: 99; FACS binding data [27]: 99.6; FACS binding data [28]: 99.1; FACS binding data [29]: 96.3; FACS binding data [30]: 0.64; FACS binding data [31]: 98.5; FACS binding data [32]: 0.31; FACS binding data [33]: 99.6; Octet signal [34]: 0.231; Octet signal [35]: -0.0122
B2	98.4	84.4	99.3	97	98.3	0.15	21.5	-0.146	-0.271	0.355	-0.0649	-0.28	-0.0267	62.8	99.3	98.7	98.8	99.1	99.5	99.5	Octet signal [2]: -0.26; Octet signal [36]: -0.101; FACS binding data [23]: 98.5; FACS binding data [24]: 98.5; FACS binding data [25]: 98.8; FACS binding data [26]: 99; FACS binding data [27]: 99.6; FACS binding data [28]: 99; FACS binding data [29]: 97.2; FACS binding data [30]: 97.4; FACS binding data [31]: 6.01; FACS binding data [32]: 0.16; FACS binding data [33]: 99.6; Octet signal [34]: 0.0905; Octet signal [35]: -0.137
B3	98	65.5	99.1	99	97.6	66.1	97.1	0.616	0.628	1.37	0.95	0.552	0.865	67.3	98.2	98.6	98.4	98.5	99.6	15.6	Octet signal [36]: 1.01; Octet signal [14]: 1.16; FACS binding data [23]: 94.1; FACS binding data [24]: 96.6; FACS binding data [25]: 98.9; FACS binding data [26]: 98.6; FACS binding data [27]: 98.3; FACS binding data [28]: 98.4; FACS binding data [29]: 93.9; FACS binding data [30]: 0.22; FACS binding data [31]: 21.1; FACS binding data [32]: 0.12; FACS binding data [33]: 99.6; Octet signal [34]: 1.44; Octet signal [35]: 0.543
